Experimental findings from patent US7183387 (Genentech, dated 2007) are described below.

T1: human FcγRIIA-R131 α subunit extracellular domain-His6-GST fusion (human, UniProt P12318 34-217)
T1 construct: ECD-6His-GST fusion made in 293 cells; also called FcγRIIA-Arg131; not shown: glutathione S transferase (GST)
T1 sequence: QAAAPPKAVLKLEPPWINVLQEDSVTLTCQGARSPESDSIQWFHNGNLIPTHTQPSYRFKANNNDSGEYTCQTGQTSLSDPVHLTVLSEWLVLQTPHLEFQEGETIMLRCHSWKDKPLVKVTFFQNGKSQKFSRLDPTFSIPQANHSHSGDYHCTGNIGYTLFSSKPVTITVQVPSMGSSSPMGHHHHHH

T2: human FcγRIIA-Arg131 α subunit extracellular domain-His6-GST fusion (human, UniProt P12318 34-217)
T2 construct: extracellular domain; also called FcγRIIA-R131; not shown: glutathione S transferase (GST)
T2 sequence: T1 sequence

T3: human FcγRIIB α subunit extracellular domain-His6-GST fusion (human, UniProt P31994 43-217)
T3 construct: extracellular domain; also called CD32; not shown: glutathione S transferase (GST)
T3 sequence: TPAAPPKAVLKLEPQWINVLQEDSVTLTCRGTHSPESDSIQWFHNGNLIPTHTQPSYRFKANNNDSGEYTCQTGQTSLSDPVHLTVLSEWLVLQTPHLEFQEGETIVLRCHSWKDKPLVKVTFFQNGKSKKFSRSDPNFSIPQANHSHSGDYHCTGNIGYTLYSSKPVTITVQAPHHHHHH

B1: anti-IgE E27 IgG1 His433Ala (antibody)
heavy: not shown
light: DIQLTQSPSSLSASVGDRVTITCRASKPVDGEGDSYLNWYQQKPGKAPKLLIYAASYLESGVPSRFSGSGSGTDFTLTISSLQPEDFATYYCQQSHEDPYTFGQGTKVEIKRTVAAPSVFIFPPSDEQLKSGTASVVCLLNNFYPREAKVQWKVDNALQSGNSQESVTEQDSKDSTYSLSSTLTLSKADYEKHKVYACEVTHQGLSSPVTKSFNRGEC
B2: anti-IgE E27 IgG1 Ser415Ala (antibody)
heavy: not shown
light: B1 light
B3: anti-IgE E27 IgG1 Lys338Ala (antibody)
heavy: not shown
light: B1 light
B4: anti-IgE E27 IgG1 Pro238Ala (antibody)
heavy: not shown
light: B1 light
B5: anti-IgE E27 IgG1 Ser298Ala (antibody)
heavy: not shown
light: B1 light
notes: also called G36 S298A
B6: anti-IgE E27 IgG1 Ile253Ala (antibody)
heavy: not shown
light: B1 light
B7: anti-IgE E27 IgG1 Lys360Ala (antibody)
heavy: not shown
light: B1 light
B8: anti-IgE E27 IgG1 Thr256Ala (antibody)
heavy: not shown
light: B1 light
B9: anti-IgE E27 IgG1 Ser337Ala (antibody)
heavy: not shown
light: B1 light
B10: anti-IgE E27 IgG1 Leu309Ala (antibody)
heavy: not shown
light: B1 light
B11: anti-IgE E27 IgG1 Lys317Ala (antibody)
heavy: not shown
light: B1 light
notes: also called Lys317A1a
B12: anti-IgE E27 IgG1 Lys326Ala (antibody)
heavy: not shown
light: B1 light
B13: anti-IgE E27 IgG1 Lys290Ala (antibody)
heavy: not shown
light: B1 light
notes: also called K290(307)A
B14: anti-IgE E27 IgG1 Lys288Ala (antibody)
heavy: not shown
light: B1 light
B15: anti-IgE E27 IgG1 Val303Ala (antibody)
heavy: not shown
light: B1 light
B16: anti-IgE E27 IgG1 Lys334Ala (antibody)
heavy: not shown
light: B1 light
notes: also called G55 K334A
B17: anti-IgE E27 IgG1 Ser267Ala (antibody)
heavy: not shown
light: B1 light
notes: also called G15 S267A
B18: anti-IgE E27 IgG1 Ser239Ala (antibody)
heavy: not shown
light: B1 light
B19: anti-IgE E27 IgG1 Val305Ala (antibody)
heavy: not shown
light: B1 light
B20: anti-IgE E27 IgG1 Thr307Ala (antibody)
heavy: not shown
light: B1 light
B21: anti-IgE E27 IgG1 Ser424Ala (antibody)
heavy: not shown
light: B1 light
B22: anti-IgE E27 IgG1 variant E283(300)A (antibody)
heavy: not shown
light: B1 light
notes: Fc variant of E27; also called IG2 25

T8 sequence (P08637 other isoform, or with tags, fused parts or gaps, form in doubt): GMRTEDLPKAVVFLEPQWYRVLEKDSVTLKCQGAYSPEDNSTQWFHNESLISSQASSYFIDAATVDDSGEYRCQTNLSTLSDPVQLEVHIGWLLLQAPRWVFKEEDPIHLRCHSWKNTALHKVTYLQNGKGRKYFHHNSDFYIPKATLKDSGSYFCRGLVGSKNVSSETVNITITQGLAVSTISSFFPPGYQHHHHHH

For one assay, the target named is T4, human FcγRIA α subunit extracellular domain-His6-GST fusion (human, UniProt P12314 16-292).
T4 construct: extracellular domain; also called GST-FcγRIA; CD64; not shown: glutathione S transferase (GST)
T4 sequence (P12314 other isoform, or with tags, fused parts or gaps): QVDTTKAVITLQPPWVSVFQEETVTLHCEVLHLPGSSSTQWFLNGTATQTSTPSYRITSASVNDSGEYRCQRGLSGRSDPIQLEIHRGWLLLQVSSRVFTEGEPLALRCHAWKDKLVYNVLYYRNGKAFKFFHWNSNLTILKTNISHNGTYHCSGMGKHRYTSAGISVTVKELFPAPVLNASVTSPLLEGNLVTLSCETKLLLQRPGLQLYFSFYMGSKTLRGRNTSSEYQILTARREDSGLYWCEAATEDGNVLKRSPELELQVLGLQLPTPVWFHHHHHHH
The assay can be described thus: FcγRI ELISA and THP-1 cells, averaged. A general note: In an ELISA, binding on a coated surface is turned into a signal by an enzyme label.
As for B1, the “ratio to native IgG1” value was determined as 0.98 ratio.
Take B2: the “ratio to native IgG1” value worked out at 1.04 ratio.
As to B3, the “ratio to native IgG1” value was determined as 0.9 ratio.
Still for that read-out and setting: next, B4: 0.6 ratio.
On the same count and under the same terms, next, B5: 1.11 ratio; B6: 0.96 ratio.
The same measure, in the same setting: next, B7: 1.02 ratio; B8: 1.01 ratio; B9: 1.17 ratio.
For the molecule B10, the “ratio to native IgG1” value is 0.93 ratio.
Consider B11, for which the “ratio to native IgG1” value worked out at 0.92 ratio.
On to B12, for which the “ratio to native IgG1” value was 1.03 ratio.
As to B13, the “ratio to native IgG1” value was 1.01 ratio.
With B14, the “ratio to native IgG1” value was 0.88 ratio.
Take B15: the “ratio to native IgG1” value turned out to be 0.91 ratio.
Still for that read-out and setting: next, B16: 1.06 ratio; B17: 1.09 ratio.
On the same count and under the same terms, next, B18: 0.81 ratio; B19: 1.04 ratio.
For the molecule B20, the “ratio to native IgG1” value is 0.99 ratio.
Consider B21, for which the “ratio to native IgG1” value was 0.98 ratio.

Another assay deals with T1, human FcγRIIA-R131 α subunit …. The assay can be described thus: ELISA, IgG complex, receptor coated.
For B22, the “ratio of binding, variant/native IgG1 (mean)” value was found to be 1.24 ratio.

The target of a further assay is T5, human FcγRIIIA-F158 α subunit extracellular domain-His6-GST fusion (human, UniProt P08637 17-208).
T5 construct: ECD-6His-GST fusion made in 293 cells; also called FcγRIIIA-Phe158; not shown: glutathione S transferase (GST)
T5 sequence (P08637 other isoform, or with tags, fused parts or gaps, form in doubt): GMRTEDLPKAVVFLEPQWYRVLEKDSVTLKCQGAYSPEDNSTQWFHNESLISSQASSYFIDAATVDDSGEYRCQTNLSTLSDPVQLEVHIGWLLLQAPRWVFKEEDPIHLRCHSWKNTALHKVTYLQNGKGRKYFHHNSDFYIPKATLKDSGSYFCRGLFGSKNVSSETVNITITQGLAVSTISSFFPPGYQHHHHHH
Kind of assay: ELISA, IgG complex, receptor coated.
For the molecule B22, the “ratio of binding, variant/native IgG1 (mean)” value amounted to 1.01 ratio.

For a further assay, the target named is T6, human neonatal Fc receptor (FcRn), biotinylated (human, UniProt P55899 24-297; P61769 21-119, biotinylated (biotin-X-NHS)).
T6 construct: captured on streptavidin plates
T6 sequence (P55899 24-297 limits assumed, chain 1 of 2): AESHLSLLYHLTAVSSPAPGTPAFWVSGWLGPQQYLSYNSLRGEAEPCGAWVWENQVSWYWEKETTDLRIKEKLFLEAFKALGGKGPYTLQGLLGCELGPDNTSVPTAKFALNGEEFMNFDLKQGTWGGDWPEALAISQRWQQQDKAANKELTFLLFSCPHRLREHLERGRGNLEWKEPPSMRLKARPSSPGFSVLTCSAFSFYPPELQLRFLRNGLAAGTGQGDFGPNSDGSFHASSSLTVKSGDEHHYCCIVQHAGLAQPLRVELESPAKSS
T6 sequence (P61769 21-119 limits assumed, chain 2 of 2): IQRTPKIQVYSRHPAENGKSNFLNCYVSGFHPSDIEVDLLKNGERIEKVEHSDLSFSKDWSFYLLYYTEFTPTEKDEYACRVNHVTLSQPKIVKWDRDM
Kind of assay: FcRn ELISA, pH 6.0.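 Further: Streptavidin-captured FcRn plates, IgG variants titrated 2 h at pH 6.0, peroxidase anti-human IgG read at 450 nm, variant over standard concentration at the standard curve mid-point absorbance.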
For B1, the “ratio to native IgG1” value amounted to 0.41 ratio.
Consider B2, for which the “ratio to native IgG1” value worked out at 0.44 ratio.
Same read-out and setting: next, B3: 1.14 ratio; B4: 1.49 ratio.
As to B5, the “ratio to native IgG1” value came to 0.8 ratio.
Still for that read-out and setting: next, B6: 0.1 ratio.
Consider B7, for which the “ratio to native IgG1” value was 1.3 ratio.
As to B8, the “ratio to native IgG1” value is 1.91 ratio.
Same read-out and setting: next, B9: 1.03 ratio.
Same read-out and setting: next, B10: 0.63 ratio.
With B11, the “ratio to native IgG1” value stood at 1.44 ratio.
B12: the “ratio to native IgG1” value turned out to be 1.03 ratio.
For B13, the “ratio to native IgG1” value was found to be 0.79 ratio.
As to B14, the “ratio to native IgG1” value came to 0.38 ratio.
On the same count and under the same terms, next, B15: 1.26 ratio; B16: 1.05 ratio.
In the case of B17, the “ratio to native IgG1” value came out at 1.08 ratio.
For B18, the “ratio to native IgG1” value worked out at 1.06 ratio.
On the same count and under the same terms, next, B19: 1.46 ratio; B20: 1.81 ratio; B21: 1.41 ratio.

In the next assay the target is T2, human FcγRIIA-Arg131 α subunit …. Kind of assay: hexamer ELISA.
With B1, the “ratio to native IgG1” value was 0.92 ratio.
With B2, the “ratio to native IgG1” value is 0.9 ratio.
On the same count and under the same terms, next, B3: 0.78 ratio; B4: 0.38 ratio.
The same measure, in the same setting: next, B5: 0.4 ratio.
Same read-out and setting: next, B6: 1.14 ratio; B7: 1.12 ratio; B8: 1.41 ratio.
Consider B9, for which the “ratio to native IgG1” value is 1.22 ratio.
Same read-out and setting: next, B10: 1.13 ratio; B11: 1.13 ratio; B12: 1.23 ratio.
Same read-out and setting: next, B13: 1.3 ratio.
Turning to B14, the “ratio to native IgG1” value was found to be 1.15 ratio.
On the same count and under the same terms, next, B15: 0.86 ratio; B16: 1.01 ratio.
With B17, the “ratio to native IgG1” value was 1.52 ratio.
On the same count and under the same terms, next, B18: 0.73 ratio; B19: 1.12 ratio.
On the same count and under the same terms, next, B20: 1.07 ratio; B21: 1.04 ratio.

For the next assay, the target named is T3, human FcγRIIB α subunit extracellular …. The assay can be described thus: hexamer ELISA.
With B1, the “ratio to native IgG1” value turned out to be 0.79 ratio.
Still for that read-out and setting: next, B2: 0.88 ratio; B3: 0.63 ratio; B4: 0.36 ratio.
Same read-out and setting: next, B5: 0.23 ratio; B6: 1.18 ratio; B7: 1.12 ratio.
With B8, the “ratio to native IgG1” value amounted to 2.06 ratio.
On to B9, for which the “ratio to native IgG1” value worked out at 1.26 ratio.
For the molecule B10, the “ratio to native IgG1” value came to 1.26 ratio.
B11: the “ratio to native IgG1” value amounted to 1.18 ratio.
Consider B12, for which the “ratio to native IgG1” value was 1.41 ratio.
Still for that read-out and setting: next, B13: 1.38 ratio; B14: 1.14 ratio; B15: 0.65 ratio.
Consider B16, for which the “ratio to native IgG1” value was 0.9 ratio.
For B17, the “ratio to native IgG1” value was determined as 1.84 ratio.
Same read-out and setting: next, B18: 0.76 ratio; B19: 1.23 ratio; B20: 1.27 ratio.
Still for that read-out and setting: next, B21: 1.02 ratio.

The target of another assay is T7, human FcγRIIIA-Phe158 α subunit extracellular domain-His6-GST fusion (human, UniProt P08637 17-208).
T7 construct: extracellular domain; also called FcγRIIIA-F158; CD16; not shown: glutathione S transferase (GST)
The assay can be described thus: hexamer ELISA.
On to B1, for which the “ratio to native IgG1” value was 1.02 ratio.
Consider B2, for which the “ratio to native IgG1” value turned out to be 0.86 ratio.
Same read-out and setting: next, B3: 0.15 ratio; B4: 0.07 ratio.
With B5, the “ratio to native IgG1” value is 1.34 ratio.
On to B6, for which the “ratio to native IgG1” value came out at 1.08 ratio.
B7: the “ratio to native IgG1” value turned out to be 1.23 ratio.
Consider B8, for which the “ratio to native IgG1” value amounted to 1.32 ratio.
For the molecule B9, the “ratio to native IgG1” value came to 0.94 ratio.
As for B10, the “ratio to native IgG1” value came out at 1.07 ratio.
The same measure, in the same setting: next, B11: 1.1 ratio; B12: 1.23 ratio; B13: 1.31 ratio.
As to B14, the “ratio to native IgG1” value worked out at 1.06 ratio.
In the case of B15, the “ratio to native IgG1” value worked out at 0.33 ratio.
Turning to B16, the “ratio to native IgG1” value amounted to 1.39 ratio.
Still for that read-out and setting: next, B17: 1.05 ratio; B18: 0.26 ratio.
On the same count and under the same terms, next, B19: 0.84 ratio; B20: 1.09 ratio; B21: 0.89 ratio.

Another assay concerns the target T8, human FcγRIIIA-V158 α subunit extracellular domain-His6-GST fusion (human, UniProt P08637 17-208).
T8 construct: ECD-6His-GST fusion made in 293 cells; also called FcγRIIIA-Val158; not shown: glutathione S transferase (GST)
Kind of assay: ELISA, IgG monomer, receptor coated.
As to B22, the “ratio of binding, variant/native IgG1 (mean)” value was 0.78 ratio.
